In paper doi:10.1101/138099 (bioRxiv, 2017):
Changes are numbered by the printed parent chain. Numbers in names are those of the source. Where “and” joins values, the source holds several entries; their conditions need not be identical. Equal entries are not always repeated.

B1: Recombinant BslA_(42-181) (domain or fragment, Bacillus subtilis, UniProt P71014 42-181, looked up)
chain: MRTQSTASLFATITGASKTEWSFSDIELTYRPNTLLSLGVMEFTLPSGFTANTKDTLNGNALRTTQILNNGKTVRVPLALDLLGAGEFKLKLNNKTLPAAGTYTFRAENKSLSIGNKFYAEASIDVAKRSTPPTQPCGCN
B2: BslA_(C178A), recombinant BslA_(42-181) variant (domain or fragment, Bacillus subtilis, UniProt P71014 42-181, looked up)
chain: B1 chain with C137A
B3: BslA_(C180A), recombinant BslA_(42-181) variant (domain or fragment, Bacillus subtilis, UniProt P71014 42-181, looked up)
chain: B1 chain with C139A
B4: BslA, wild type, from the B. subtilis NCIB3610 biofilm (natural protein, UniProt P71014 29-181, looked up)
chain: AESTSTKAHTESTMRTQSTASLFATITGASKTEWSFSDIELTYRPNTLLSLGVMEFTLPSGFTANTKDTLNGNALRTTQILNNGKTVRVPLALDLLGAGEFKLKLNNKTLPAAGTYTFRAENKSLSIGNKFYAEASIDVAKRSTPPTQPCGCN
B5: BslA_(C178A) produced in the B. subtilis bslA deletion strain (NRS5177) (natural protein, Bacillus subtilis, UniProt P71014 29-181, looked up)
chain: B4 chain with C150A
B6: BslA_(C180A) produced in the B. subtilis bslA deletion strain (NRS5178) (natural protein, Bacillus subtilis, UniProt P71014 29-181, looked up)
chain: B4 chain with C152A

Columns and labels:
[1] = biological target: YweA_(BslA171-181 C178A), recombinant chimeric protein (Bacillus subtilis) (UniProt P71014); test: non-reducing SDS-PAGE
[2] = biological target: YweA_(BslA171-181), recombinant chimeric protein (Bacillus subtilis); test: SEC + other: non-reducing SDS-PAGE
[3] = biological target: YweA_(BslA171-181 C180A), recombinant chimeric protein (Bacillus subtilis) (UniProt P71014); test: non-reducing SDS-PAGE
[4] = biological target: the molecule itself; test: SEC + other: non-reducing SDS-PAGE
cross-linking = biological target: the molecule itself; test: cross-linking

Molecule | stoichiometry N [4] | stoichiometry N (cross-linking) | also measured
YweA_(BslA171-181 C178A), recombinant chimeric protein (from UniProt P71014 171-181) |  |  | stoichiometry N [1]: 2
YweA_(BslA171-181), recombinant chimeric protein |  |  | stoichiometry N [2]: 2
YweA_(BslA171-181 C180A), recombinant chimeric protein (from UniProt P71014 171-181) |  |  | stoichiometry N [3]: 2
B1 | 2 and 4 |  | 
B2 | 2 |  | 
B3 | 2 |  | 
B4 |  | 2 and 4 | 
B5 |  | 2 | 
B6 |  | 2 | 
